This note sets out measurements from PMC11832770, “NADH-bound AIF activates the mitochondrial CHCHD4/MIA40 chaperone by a substrate-mimicry mechanism” (The EMBO Journal, 2025).

The target of the test is T1, Atto488-CHCHD4 (human, UniProt Q8N4Q1 1-142, ATTO 488 (NHS ester) on the N-terminus).
T1 construct: not shown: GB1-6X-His, N-terminal, cleaved
T1 sequence (looked up): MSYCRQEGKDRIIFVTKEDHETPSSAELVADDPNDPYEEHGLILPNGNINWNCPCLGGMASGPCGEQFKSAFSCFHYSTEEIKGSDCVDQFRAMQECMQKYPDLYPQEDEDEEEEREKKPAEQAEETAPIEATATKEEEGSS
Nature of the test: MST; AIF allostery mutants titrated (1.8 nM–30 µM) into 100 nM Atto488-CHCHD4 without NADH; 25 mM HEPES pH 7.5, 150 mM NaCl, 0.01% Tween-20, 5 mM TCEP; 25 °C. Conditions: both partners purified.

B1: AIF-ΔC-loop (domain or fragment)
chain: VGAGAYAYKTMKEDEKRYNERISGLGLTPEQKQKKAALSASEGEEVPQDKAPSHVPFLLIGGGTAAFAAARSIRARDPGARVLIVSEDPELPYMRPPLSKELWFSDDPNVTKTLRFKQWNGKERSIYFQPPSFYVSAQDLPHIENGGVAVLTGKKVVQLDVRDNMVKLNDGSQITYEKCLIATGGTPRSLSAIDRAGAEVKSRTTLFRKIGDFRSLEKISREVKSITIIGGGFLGSELACALGRKARALGTEVIQLFPEKGNMGKILPEYLSNWTMEKVRREGVKVMPNAIVQSVGVSSGKLLIKLKDGRKVETDHIVAAVGLEPNVELAKTGGLEIDSDFGGFRVNAELQARSNIWVAGDAACFYDIKLGRRRVEHHDHAVVSGRLAGENMTGAAKPYWHQSMFWSDLGPDVGYEAIGLVDSSLPTVGVFYGKGVIFYLRDKVVVGIVLWNIFNRMPIARKIIKDGEQHEDLNEVAKLFNIHED
In the case of B1, the Kd is 4 µM.

The term Kd denotes the free concentration of one partner at which half of the binding sites on the other are occupied at equilibrium, for simple one-to-one binding. A higher Kd goes with lower affinity.
